Source: publication doi:10.1101/2023.08.08.549832

B1: PTCH2-mCherry (receptor)
chain: MTRSPPLRELPPSYTPPARTAAPQILAGSLKAPLWLRAYFQGLLFSLGCGIQRHCGKVLFLGLLAFGALALGLRMAIIETNLEQLWVEVGSRVSQELHYTKEKLGEEAAYTSQMLIQTARQEGENILTPEALGLHLQAALTASKVQVSLYGKSWDLNKICYKSGVPLIENGMIERMIEKLFPCVILTPLDCFWEGAKLQGGSAYLPGRPDIQWTNLDPEQLLEELGPFASLEGFRELLDKAQVGQAYVGRPCLHPDDLHCPPSAPNHHSRQAPNVAHELSGGCHGFSHKFMHWQEELLLGGMARDPQGELLRAEALQSTFLLMSPRQLYEHFRGDYQTHDIGWSEEQASTVLQAWQRRFVQLAQEALPENASQQIHAFSSTTLDDILHAFSEVSAARVVGGYLLMLAYACVTMLRWDCAQSQGSVGLAGVLLVALAVASGLGLCALLGITFNAATTQVLPFLALGIGVDDVFLLAHAFTEALPGTPLQERMGECLQRTGTSVVLTSINNMAAFLMAALVPIPALRAFSLQAAIVVGCTFVAVMLVFPAILSLDLRRRHCQRLDVLCCFSSPCSAQVIQILPQELGDGTVPVGIAHLTATVQAFTHCEASSQHVVTILPPQAHLVPPPSDPLGSELFSPGGSTRDLLGQEEETRQKAACKSLPCARWNLAHFARYQFAPLLLQSHAKAIVLVLFGALLGLSLYGATLVQDGLALTDVVPRGTKEHAFLSAQLRYFSLYEVALVTQGGFDYAHSQRALFDLHQRFSSLKAVLPPPATQAPRTWLHYYRNWLQGIQAAFDQDWASGRITRHSYRNGSEDGALAYKLLIQTGDAQEPLDFSQLTTRKLVDREGLIPPELFYMGLTVWVSSDPLGLAASQANFYPPPPEWLHDKYDTTGENLRIPPAQPLEFAQFPFLLRGLQKTADFVEAIEGARAACAEAGQAGVHAYPSGSPFLFWEQYLGLRRCFLLAVCILLVCTFLVCALLLLNPWTAGLIVLVLAMMTVELFGIMGFLGIKLSAIPVVILVASVGIGVEFTVHVALGFLTTQGSRNLRAAHALEHTFAPVTDGAISTLLGLLMLAGSHFDFIVRYFFAALTVLTLLGLLHGLVLLPVLLSILGPPPEVIQMYKESPEILSPPAPQGGGLRWGASSSLPQSFARVTTSMTVAIHPPPLPGAYIHPAPDEPPWSPAATSSGNLSSRGPGPATG

Columns and labels:
Assay in all cases: FRET or BRET
[1] = molecular target: PTCH1-eGFP (enhanced green fluorescent protein-tagged human PTCH1) (human) (UniProt Q13635)
[2] = molecular target: PTCH2-eGFP (not stated (printed entry Q9Y6C5 is human PTCH2)) (UniProt Q9Y6C5)
[3] = molecular target: PTCH1-eGFP (enhanced green fluorescent protein-tagged human PTCH1) (human) (UniProt Q13635); remark: listed apart in the source

Molecule	net increase in GFP signal after mCherry photobleaching [1] [%]	magnitude of GFP signal change against PTCH1 homodimers [2] [% lower]	magnitude of GFP signal change against PTCH1 homodimers [3] [% lower]
PTCH1-mCherry (from UniProt Q13635 1-1447) (receptor)	> 10	50	
B1			50
